Results as given in patent publication US20240327815A1 (Zymeworks, published 2024).

Legend:
[1] = target: T1, full length wild type SARS-CoV-2 spike glycoprotein on pseudotyped lentivirus (SARS-CoV-2, UniProt P0DTC2 14-1273); assay: cell-based or functional assay
[2] = target: T1, full length wild type SARS-CoV-2 spike …; assay: cell-based or functional assay; remark: listed apart in the source
[3] = target: WT SARS-CoV-2 spike protein, plate-coated (MSD V-Plex) (SARS-CoV-2, UniProt P0DTC2 14-1208); assay: MSD competition vs labelled ACE2

Binder	Bmax (% inhibition) [1] [%]	Pseudovirus Neutralization (IC50, nM) [2] [nM]	%-inhibition EC50 (M), pseudovirus neutralization [1] [M]	RLU EC50 (M), pseudovirus neutralization [1] [M]	IC50 [3] [nM]
Bamlanivimab (antibody, V domains shown) VH: QVQLVQSGAEVKKPGSSVKVSCKASGGTFSNYAISWVRQAPGQGLEWMGRIIPILGIANYAQKFQGRVTITADKSTSTAYMELSSLRSEDTAVYYCARGYYEARHYYYYYAMDVWGQGTAVTVSS VL: not shown	100	2.29	–	–	–
REGN10933 (Casirivimab) (antibody, V domains shown) VH: QVQLVESGGGLVKPGGSLRLSCAASGFTFSDYYMSWIRQAPGKGLEWVSYITYSGSTIYYADSVKGRFTISRDNAKSSLYLQMNSLRAEDTAVYYCARDRGTTMVPFDYWGQGTLVTVSS VL: DIQMTQSPSSLSASVGDRVTITCQASQDITNYLNWYQQKPGKAPKLLIYAASNLETGVPSRFSGSGSGTDFTFTISGLQPEDIATYYCQQYDNLPLTFGGGTKVEIKR	–	0.05	1.1e-10	1e-10	–
REGN10987 (Imdevimab) (antibody, V domains shown) VH: QVQLVESGGGVVQPGRSLRLSCAASGFTFSNYAMYWVRQAPGKGLEWVAVISYDGSNKYYADSVKGRFTISRDNSKNTLYLQMNSLRTEDTAVYYCASGSDYGDYLLVYWGQGTLVTVSS VL: QSALTQPASVSGSPGQSITISCTGTSSDVGGYNYVSWYQQHPGKAPKLMIYDVSKRPSGVSNRFSGSKSGNTASLTISGLQSEDEADYYCNSLTSISTWVFGGGTKLTVLR	116	4.76	2.9e-09	2.9e-09	–
Etesevimab (antibody, V domains shown) VH: EVQLVESGGGLVQPGGSLRLSCAASGFTVSSNYMSWVRQAPGKGLEWVSVIYSGGSTFYADSVKGRFTISRDNSMNTLFLQMNSLRAEDTAVYYCARVLPMYGDYLDYWGQGTLVTVSS VL: not shown	–	–	–	–	0.51
